B10: KaiC-S431E-T432A (natural protein, Synechococcus elongatus)
chain: MTSAEMTSPNNNSEHQAIAKMRTMIEGFDDISHGGLPIGRSTLVSGTSGTGKTLFSIQFLYNGIIEFDEPGVFVTFEETPQDIIKNARSFGWDLAKLVDEGKLFILDASPDPEGQEVVGGFDLSALIERINYAIQKYRARRVSIDSVTSVFQQYDASSVVRRELFRLVARLKQIGATTVMTTERIEEYGPIARYGVEEFVSDNVVILRNVLEGERRRRTLEILKLRGTSHMKGEYPFTITDHGINIFPLGAMRLTQRSSNVRVSSGVVRLDEMCGGGFFKDSIILATGATGTGKTLLVSRFVENACANKERAILFAYEESRAQLLRNAYSWGMDFEEMERQNLLKIVCAYPESAGLEDHLQIIKSEINDFKPARIAIDSLSALARGVSNNAFRQFVIGVTGYAKQEEITGLFTNTSDQFMGAHSITDSHIEAITDTIILLQYVEIRGEMSRAINVFKMRGSWHDKAIREFMISDKGPDIKDSFRNFERIISGSPTRITVDEKSELSRIVRGVQEKGPES

For the data set “KaiC-S431E-T432A”, the target named is B10. Briefly: fluorescence polarisation. In general terms: In fluorescence polarisation assays a small probe gives low polarisation when free and higher when bound to something large.
The target of data set [1] is fluorescently labeled KaiB (Synechococcus elongatus) (UniProt Q79PF5). Put plainly: fluorescence polarisation.
The data set “cryo-EM structure” concerns the molecule itself. Put plainly: cryo-EM structure.

The term Kd denotes the free concentration of one partner at which half of the binding sites on the other are occupied at equilibrium, for simple one-to-one binding. Usually stoichiometry N stands for a count of units in the complex or per binding partner.

B1: KaiB-I87A (natural protein, Synechococcus elongatus, UniProt Q79PF5 1-102, looked up)
chain: MSPRKTYILKLYVAGNTPNSVRALKTLKNILEVEFQGVYALKVIDVLKNPQLAEEDKILATPTLAKVLPLPVRRIIGDLSDREKVLAGLDLLYGELQDSDDF
Consider B1, for which the binding result in the data set with KaiC-S431E-T432A was “binds”.

B2: KaiC-EA K224A (natural protein)
chain: MTSAEMTSPNNNSEHQAIAKMRTMIEGFDDISHGGLPIGRSTLVSGTSGTGKTLFSIQFLYNGIIEFDEPGVFVTFEETPQDIIKNARSFGWDLAKLVDEGKLFILDASPDPEGQEVVGGFDLSALIERINYAIQKYRARRVSIDSVTSVFQQYDASSVVRRELFRLVARLKQIGATTVMTTERIEEYGPIARYGVEEFVSDNVVILRNVLEGERRRRTLEILALRGTSHMKGEYPFTITDHGINIFPLGAMRLTQRSSNVRVSSGVVRLDEMCGGGFFKDSIILATGATGTGKTLLVSRFVENACANKERAILFAYEESRAQLLRNAYSWGMDFEEMERQNLLKIVCAYPESAGLEDHLQIIKSEINDFKPARIAIDSLSALARGVSNNAFRQFVIGVTGYAKQEEITGLFTNTSDQFMGAHSITDSHIEAITDTIILLQYVEIRGEMSRAINVFKMRGSWHDKAIREFMISDKGPDIKDSFRNFERIISGSPTRITVDEKSELSRIVRGVQEKGPES
For B2, the Kd in data set [1] is 4.6 µM.

B3: nighttime KaiC R226A (natural protein)
chain: MTSAEMTSPNNNSEHQAIAKMRTMIEGFDDISHGGLPIGRSTLVSGTSGTGKTLFSIQFLYNGIIEFDEPGVFVTFEETPQDIIKNARSFGWDLAKLVDEGKLFILDASPDPEGQEVVGGFDLSALIERINYAIQKYRARRVSIDSVTSVFQQYDASSVVRRELFRLVARLKQIGATTVMTTERIEEYGPIARYGVEEFVSDNVVILRNVLEGERRRRTLEILKLAGTSHMKGEYPFTITDHGINIFPLGAMRLTQRSSNVRVSSGVVRLDEMCGGGFFKDSIILATGATGTGKTLLVSRFVENACANKERAILFAYEESRAQLLRNAYSWGMDFEEMERQNLLKIVCAYPESAGLEDHLQIIKSEINDFKPARIAIDSLSALARGVSNNAFRQFVIGVTGYAKQEEITGLFTNTSDQFMGAHSITDSHIEAITDTIILLQYVEIRGEMSRAINVFKMRGSWHDKAIREFMISDKGPDIKDSFRNFERIISGSPTRITVDEKSELSRIVRGVQEKGPES
For the molecule B3, the equilibrium dissociation constant (Kd) in data set [1] is > 38 µM.

B4: nighttime KaiC R217A (natural protein)
chain: MTSAEMTSPNNNSEHQAIAKMRTMIEGFDDISHGGLPIGRSTLVSGTSGTGKTLFSIQFLYNGIIEFDEPGVFVTFEETPQDIIKNARSFGWDLAKLVDEGKLFILDASPDPEGQEVVGGFDLSALIERINYAIQKYRARRVSIDSVTSVFQQYDASSVVRRELFRLVARLKQIGATTVMTTERIEEYGPIARYGVEEFVSDNVVILRNVLEGERRARTLEILKLRGTSHMKGEYPFTITDHGINIFPLGAMRLTQRSSNVRVSSGVVRLDEMCGGGFFKDSIILATGATGTGKTLLVSRFVENACANKERAILFAYEESRAQLLRNAYSWGMDFEEMERQNLLKIVCAYPESAGLEDHLQIIKSEINDFKPARIAIDSLSALARGVSNNAFRQFVIGVTGYAKQEEITGLFTNTSDQFMGAHSITDSHIEAITDTIILLQYVEIRGEMSRAINVFKMRGSWHDKAIREFMISDKGPDIKDSFRNFERIISGSPTRITVDEKSELSRIVRGVQEKGPES
For the molecule B4, in data set [1], the KaiB cooperativity index (fsKaiB as secondary titrant) turned out to be 1.6 and the equilibrium dissociation constant (Kd) was > 13 µM.

B5: nighttime KaiC-K457A (natural protein)
chain: MTSAEMTSPNNNSEHQAIAKMRTMIEGFDDISHGGLPIGRSTLVSGTSGTGKTLFSIQFLYNGIIEFDEPGVFVTFEETPQDIIKNARSFGWDLAKLVDEGKLFILDASPDPEGQEVVGGFDLSALIERINYAIQKYRARRVSIDSVTSVFQQYDASSVVRRELFRLVARLKQIGATTVMTTERIEEYGPIARYGVEEFVSDNVVILRNVLEGERRRRTLEILKLRGTSHMKGEYPFTITDHGINIFPLGAMRLTQRSSNVRVSSGVVRLDEMCGGGFFKDSIILATGATGTGKTLLVSRFVENACANKERAILFAYEESRAQLLRNAYSWGMDFEEMERQNLLKIVCAYPESAGLEDHLQIIKSEINDFKPARIAIDSLSALARGVSNNAFRQFVIGVTGYAKQEEITGLFTNTSDQFMGAHSITDSHIEAITDTIILLQYVEIRGEMSRAINVFAMRGSWHDKAIREFMISDKGPDIKDSFRNFERIISGSPTRITVDEKSELSRIVRGVQEKGPES
The molecule B5 gave an equilibrium dissociation constant (Kd) in data set [1] of 4.6 µM.

B6: nighttime KaiC R216A (natural protein)
chain: MTSAEMTSPNNNSEHQAIAKMRTMIEGFDDISHGGLPIGRSTLVSGTSGTGKTLFSIQFLYNGIIEFDEPGVFVTFEETPQDIIKNARSFGWDLAKLVDEGKLFILDASPDPEGQEVVGGFDLSALIERINYAIQKYRARRVSIDSVTSVFQQYDASSVVRRELFRLVARLKQIGATTVMTTERIEEYGPIARYGVEEFVSDNVVILRNVLEGERARRTLEILKLRGTSHMKGEYPFTITDHGINIFPLGAMRLTQRSSNVRVSSGVVRLDEMCGGGFFKDSIILATGATGTGKTLLVSRFVENACANKERAILFAYEESRAQLLRNAYSWGMDFEEMERQNLLKIVCAYPESAGLEDHLQIIKSEINDFKPARIAIDSLSALARGVSNNAFRQFVIGVTGYAKQEEITGLFTNTSDQFMGAHSITDSHIEAITDTIILLQYVEIRGEMSRAINVFKMRGSWHDKAIREFMISDKGPDIKDSFRNFERIISGSPTRITVDEKSELSRIVRGVQEKGPES
As for B6, the Kd in data set [1] is > 25 µM.

B7: nighttime KaiC H230A (natural protein)
chain: MTSAEMTSPNNNSEHQAIAKMRTMIEGFDDISHGGLPIGRSTLVSGTSGTGKTLFSIQFLYNGIIEFDEPGVFVTFEETPQDIIKNARSFGWDLAKLVDEGKLFILDASPDPEGQEVVGGFDLSALIERINYAIQKYRARRVSIDSVTSVFQQYDASSVVRRELFRLVARLKQIGATTVMTTERIEEYGPIARYGVEEFVSDNVVILRNVLEGERRRRTLEILKLRGTSAMKGEYPFTITDHGINIFPLGAMRLTQRSSNVRVSSGVVRLDEMCGGGFFKDSIILATGATGTGKTLLVSRFVENACANKERAILFAYEESRAQLLRNAYSWGMDFEEMERQNLLKIVCAYPESAGLEDHLQIIKSEINDFKPARIAIDSLSALARGVSNNAFRQFVIGVTGYAKQEEITGLFTNTSDQFMGAHSITDSHIEAITDTIILLQYVEIRGEMSRAINVFKMRGSWHDKAIREFMISDKGPDIKDSFRNFERIISGSPTRITVDEKSELSRIVRGVQEKGPES
In turn, B7 gave an equilibrium dissociation constant (Kd) in data set [1] of 5.9 µM.

B8: nighttime KaiC I430G (natural protein)
chain: MTSAEMTSPNNNSEHQAIAKMRTMIEGFDDISHGGLPIGRSTLVSGTSGTGKTLFSIQFLYNGIIEFDEPGVFVTFEETPQDIIKNARSFGWDLAKLVDEGKLFILDASPDPEGQEVVGGFDLSALIERINYAIQKYRARRVSIDSVTSVFQQYDASSVVRRELFRLVARLKQIGATTVMTTERIEEYGPIARYGVEEFVSDNVVILRNVLEGERRRRTLEILKLRGTSHMKGEYPFTITDHGINIFPLGAMRLTQRSSNVRVSSGVVRLDEMCGGGFFKDSIILATGATGTGKTLLVSRFVENACANKERAILFAYEESRAQLLRNAYSWGMDFEEMERQNLLKIVCAYPESAGLEDHLQIIKSEINDFKPARIAIDSLSALARGVSNNAFRQFVIGVTGYAKQEEITGLFTNTSDQFMGAHSITDSHGEAITDTIILLQYVEIRGEMSRAINVFKMRGSWHDKAIREFMISDKGPDIKDSFRNFERIISGSPTRITVDEKSELSRIVRGVQEKGPES
Consider B8, for which the Kd in data set [1] is > 25 µM.

B9: daytime KaiC-K457A (natural protein)
chain: MTSAEMTSPNNNSEHQAIAKMRTMIEGFDDISHGGLPIGRSTLVSGTSGTGKTLFSIQFLYNGIIEFDEPGVFVTFEETPQDIIKNARSFGWDLAKLVDEGKLFILDASPDPEGQEVVGGFDLSALIERINYAIQKYRARRVSIDSVTSVFQQYDASSVVRRELFRLVARLKQIGATTVMTTERIEEYGPIARYGVEEFVSDNVVILRNVLEGERRRRTLEILKLRGTSHMKGEYPFTITDHGINIFPLGAMRLTQRSSNVRVSSGVVRLDEMCGGGFFKDSIILATGATGTGKTLLVSRFVENACANKERAILFAYEESRAQLLRNAYSWGMDFEEMERQNLLKIVCAYPESAGLEDHLQIIKSEINDFKPARIAIDSLSALARGVSNNAFRQFVIGVTGYAKQEEITGLFTNTSDQFMGAHSITDSHIAEITDTIILLQYVEIRGEMSRAINVFAMRGSWHDKAIREFMISDKGPDIKDSFRNFERIISGSPTRITVDEKSELSRIVRGVQEKGPES
B9: in data set [1], the Kd came out at 7.3 µM.

In the case of B10, in the data set “cryo-EM structure”, the “stoichiometry N” value amounted to 6.

These data come from publication PMC9495280 (Nature structural & molecular biology, 2022).
